The text below walks through data of patent US20240301429A1 (RSEM LIMITED PARTNERSHIP, published 2024).

The Kd is a measure of binding affinity in units of concentration.

The chains are these.
B1: SEMA3A-FC (R&D systems) (Fc fusion)
chain: YQNGKNNVPRLKLSYKEMLESNNVITFNGLANSSSYHTFLLDEERSRLYVGAKDHIFSFDLVNIKDFQKIVWPVSYTRRDECKWAGKDILKECANFIKVLKAYNQTHLYACGTGAFHPICTYIEIGHHPEDNIFKLENSHFENGRGKSPYDPKLLTASLLIDGELYSGTAADFMGRDFAIFRTLGHHHPIRTEQHDSRWLNDPKFISAHLISESDNPEDDKVYFFFRENAIDGEHSGKATHARIGQICKNDFGGHRSLVNKWTTFLKARLICSVPGPNGIDTHFDELQDVFLMNFKDPKNPVVYGVFTTSSNIFKGSAVCMYSMSDVRRVFLGPYAHRDGPNYQWVPYQGRVPYPRPGTCPSKTFGGFDSTKDLPDDVITFARSHPAMYNPVFPMNNRPIVIKTDVNYQFTQIVVDRVDAEDGQYDVMFIGTDVGTVLKVVSIPKETWYDLEEVLLEEMTVFREPTAISAMELSTKQQQLYIGSTAGVAQLPLHRCDIYGKACAECCLARDPYCAWDGSACSRYFPTAKRRTRRQDIRNGDPLTHCSDLHHDNHHGHSPEERIIYGVENSSTFLECSPKSQRALVYWQFQRRNEERKEEIRVDDHIIRTDQGLLLRSLQQKDSGNYLCHAVEHGFIQTLLKVTLEVIDTEHLEELLHKDDDGDGSKTKEMSNSMTPSQKVWYRDFMQLINHPNLNTMDEFCEQVWKRDRKQRRQRPGHTPGNSNKWKHLQENKKGRNRRTHEFERAPRSV
notes: Bought reagent; not shown: Fc portion of the bought fusion, detected with anti-human IgG

Holding throughout (assay): saturation binding, trap coated on plate, SEMA3A-FC titrated, anti-human IgG-HRP chemiluminescence
The target in one assay is T1, NRP1 trap R (human, UniProt O14786 22-856).
T1 construct: a1a2-b1b2-c with Y297A (the entry is the trap itself, so no substitution is applied)
T1 sequence: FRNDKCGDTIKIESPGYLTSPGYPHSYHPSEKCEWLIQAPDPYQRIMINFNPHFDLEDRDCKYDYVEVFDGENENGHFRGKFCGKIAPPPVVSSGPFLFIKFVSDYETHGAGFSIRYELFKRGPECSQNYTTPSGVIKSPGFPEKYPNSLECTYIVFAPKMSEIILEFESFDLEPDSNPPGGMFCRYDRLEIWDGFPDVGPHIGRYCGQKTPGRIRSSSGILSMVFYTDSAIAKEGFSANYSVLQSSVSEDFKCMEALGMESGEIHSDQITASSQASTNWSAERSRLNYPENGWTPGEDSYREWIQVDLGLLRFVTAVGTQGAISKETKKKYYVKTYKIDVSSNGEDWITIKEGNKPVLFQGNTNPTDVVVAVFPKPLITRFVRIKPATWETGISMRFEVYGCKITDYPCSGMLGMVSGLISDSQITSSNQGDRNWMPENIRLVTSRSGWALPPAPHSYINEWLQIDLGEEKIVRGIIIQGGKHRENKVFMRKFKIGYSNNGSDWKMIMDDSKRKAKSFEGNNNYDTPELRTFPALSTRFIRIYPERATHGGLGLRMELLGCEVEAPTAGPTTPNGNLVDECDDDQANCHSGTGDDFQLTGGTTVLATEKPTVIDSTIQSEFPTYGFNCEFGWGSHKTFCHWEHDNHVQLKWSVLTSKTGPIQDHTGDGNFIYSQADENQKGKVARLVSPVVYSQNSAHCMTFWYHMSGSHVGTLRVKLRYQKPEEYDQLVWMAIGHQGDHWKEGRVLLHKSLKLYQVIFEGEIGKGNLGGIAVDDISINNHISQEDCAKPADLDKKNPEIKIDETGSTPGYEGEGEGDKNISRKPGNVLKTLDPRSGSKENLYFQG
As to the method: (§1) Sema 3A and AP-VEGF₁₆₅ binding assays. Saturation curves for the determinations of KD of binding to SEMA 3A or VEGF165 were obtained as follow. Wells of high protein binding 96 well plates (Maxisorp, Nunc) were coated with purified traps diluted in PBS and blocked afterward with binding buffer (PBS containing 2% casein and 0.05% Tween 20). The SEMA3A-FC (R&D systems) or AP-VEGF165 ligands were diluted in binding buffer over an extensive range of concentrations and added to wells. Following an overnight incubation, wells were washed with PBS containing 0.05% tween. Bound SEMA3a-FC was detected using an HRP-linked anti-Human IgG (Biorad) and ECL substrate (Pierce). Alternatively, bound AP-VEGF165 was detected using CPD star substrate (Roche). The Chemiluminescent signal was acquired on a TECAN reader. Dissociation constant (KD) were determined by non-linear curve fitting using the Graph Pad prism software.

The target in another assay is T2, NRP1 trap AC (human, UniProt O14786 22-856).
T2 construct: a1a2-b1b2-c with D320K (held in the entry); Signal peptide not trimmed
T2 sequence: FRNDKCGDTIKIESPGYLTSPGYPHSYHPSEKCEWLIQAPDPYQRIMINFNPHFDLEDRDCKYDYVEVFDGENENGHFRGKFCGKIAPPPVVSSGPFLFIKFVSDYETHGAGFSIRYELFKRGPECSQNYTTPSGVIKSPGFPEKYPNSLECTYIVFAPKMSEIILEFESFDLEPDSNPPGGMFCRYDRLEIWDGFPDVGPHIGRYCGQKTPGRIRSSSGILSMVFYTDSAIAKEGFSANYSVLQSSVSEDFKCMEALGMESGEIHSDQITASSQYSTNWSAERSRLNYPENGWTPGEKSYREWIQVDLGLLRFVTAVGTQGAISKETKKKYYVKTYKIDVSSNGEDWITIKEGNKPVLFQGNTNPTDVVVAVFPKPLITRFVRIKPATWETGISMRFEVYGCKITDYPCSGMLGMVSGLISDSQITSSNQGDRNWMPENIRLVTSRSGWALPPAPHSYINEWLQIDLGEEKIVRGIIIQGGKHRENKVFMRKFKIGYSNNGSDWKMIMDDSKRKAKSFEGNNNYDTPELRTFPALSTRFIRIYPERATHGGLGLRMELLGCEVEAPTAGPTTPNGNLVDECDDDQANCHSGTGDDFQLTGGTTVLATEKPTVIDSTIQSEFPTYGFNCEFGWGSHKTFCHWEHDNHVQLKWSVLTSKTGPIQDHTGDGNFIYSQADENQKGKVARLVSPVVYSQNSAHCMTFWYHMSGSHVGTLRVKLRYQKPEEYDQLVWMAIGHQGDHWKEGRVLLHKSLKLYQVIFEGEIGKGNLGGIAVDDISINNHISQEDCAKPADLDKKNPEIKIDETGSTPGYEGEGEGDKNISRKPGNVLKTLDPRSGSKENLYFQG
As for the experimental part:
as §1

Another assay concerns the target T3, NRP1 trap G (human, UniProt O14786 22-856).
T3 construct: a1a2-b1b2-c; The mature trap lacks the signal peptide (about aa 1-21, may vary)
T3 sequence: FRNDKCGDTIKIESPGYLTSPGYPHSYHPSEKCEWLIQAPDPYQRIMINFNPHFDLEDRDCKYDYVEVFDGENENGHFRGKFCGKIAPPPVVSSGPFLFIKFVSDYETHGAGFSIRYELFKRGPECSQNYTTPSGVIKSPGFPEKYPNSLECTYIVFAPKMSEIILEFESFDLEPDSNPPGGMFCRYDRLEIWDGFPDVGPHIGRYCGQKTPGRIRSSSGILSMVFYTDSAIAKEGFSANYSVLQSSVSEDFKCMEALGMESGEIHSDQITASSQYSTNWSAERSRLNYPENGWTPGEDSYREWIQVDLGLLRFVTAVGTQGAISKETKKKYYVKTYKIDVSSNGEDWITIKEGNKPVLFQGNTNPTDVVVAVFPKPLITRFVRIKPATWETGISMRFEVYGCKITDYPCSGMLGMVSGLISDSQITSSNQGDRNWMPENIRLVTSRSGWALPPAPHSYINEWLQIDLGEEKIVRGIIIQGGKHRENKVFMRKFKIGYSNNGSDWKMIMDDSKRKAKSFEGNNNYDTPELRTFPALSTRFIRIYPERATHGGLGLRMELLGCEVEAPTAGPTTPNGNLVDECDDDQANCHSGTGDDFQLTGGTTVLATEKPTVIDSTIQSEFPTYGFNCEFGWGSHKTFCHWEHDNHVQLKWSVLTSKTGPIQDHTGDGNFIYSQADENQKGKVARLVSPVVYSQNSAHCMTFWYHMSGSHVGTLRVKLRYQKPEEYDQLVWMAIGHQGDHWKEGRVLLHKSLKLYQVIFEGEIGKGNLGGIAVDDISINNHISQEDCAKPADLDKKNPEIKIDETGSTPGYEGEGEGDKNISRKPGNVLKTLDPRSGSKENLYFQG
As for the experimental part: as §1

In the assay “SEMA3A-FC (R&D systems)” the target is B1. As to the method: as §1

For the molecule B1, the values for the Kd with NRP1 trap R, in the assay with NRP1 trap AC and with NRP1 trap G were 6.15 nM, 4 nM and 0.8 nM, respectively.

B2: NRP1 trap AF (receptor)
chain: FRNDKCGDTIKIESPGYLTSPGYPHSYHPSEKCEWLIQAPDPYQRIMINFNPHFDLEDRDCKYDYVEVFDGENENGHFRGKFCGKIAPPPVVSSGPFLFIKFVSDYETHGAGFSIRYELFKRGPECSQNYTTPSGVIKSPGFPEKYPNSLECTYIVFAPKMSEIILEFESFDLEPDSNPPGGMFCRYDRLEIWDGFPDVGPHIGRYCGQKTPGRIRSSSGILSMVFYTDSAIAKEGFSANYSVLQSSVSEDFKKITDYPCSGMLGMVSGLISDSQITSSNQGDRNWMPENIRLVTSRSGWALPPAPHSYINEWLQIDLGEEKIVRGIIIQGGKHRENKVFMRKFKIGYSNNGSDWKMIMDDSKRKAKSFEGNNNYDTPELRTFPALSTRFIRIYPERATHGGLGLRMELLGCEVEAPTAGPTTPNGNLVDECDDDQANCHSGTGDDFQLTGGTTVLATEKPTVIDSTIQSEFPTYGFNCEFGWGSHKTFCHWEHDNHVQLKWSVLTSKTGPIQDHTGDGNFIYSQADENQKGKVARLVSPVVYSQNSAHCMTFWYHMSGSHVGTLRVKLRYQKPEEYDQLVWMAIGHQGDHWKEGRVLLHKSLKLYQVIFEGEIGKGNLGGIAVDDISINNHISQEDCAKPADLDKKNPEIKIDETGSTPGYEGEGEGDKNISRKPGNVLKTLDPRSGSKENLYFQG
notes: a1a2b2c, deleted aa 281-430 and 857-923; The mature column prints 'About 22-429 and 431-856', against 1-280 and 431-856 in the column with signal peptide; Signal peptide not trimmed
Turning to B2, the binding result with SEMA3A-FC (R&D systems) is given as “no binding”.

B3: NRP1 trap X (receptor)
chain: FRNDKCGDTIKIESPGYLTSPGYPHSYHPSEKCEWLIQAPDPYQRIMINFNPHFDLEDRDCKYDYVEVFDGENENGHFRGKFCGKIAPPPVVSSGPFLFIKFVSDYETHGAGFSIRYELFKRGPECSQNYTTPSGVIKSPGFPEKYPNSLECTYIVFAPKMSEIILEFESFDLEPDSNPPGGMFCRYDRLEIWDGFPDVGPHIGRYCGQKTPGRIRSSSGILSMVFYTDSAIAKEGFSANYSVLQSSVSEDFKCMEALGMESGEIHSDQITASSQASTNWSAERSRLNYPENGWTPGEDSYREWIQVDLGLLRFVTAVGTQGAISKETKKKYYVKTYKIDVSSNGEDWITIKEGNKPVLFQGNTNPTDVVVAVFPKPLITRFVRIKPATWETGISMRFEVYGCKITDYPEVEAPTAGPTTPNGNLVDECDDDQANCHSGTGDDFQLTGGTTVLATEKPTVIDSTIQSEFPTYGFNCEFGWGSHKTFCHWEHDNHVQLKWSVLTSKTGPIQDHTGDGNFIYSQADENQKGKVARLVSPVVYSQNSAHCMTFWYHMSGSHVGTLRVKLRYQKPEEYDQLVWMAIGHQGDHWKEGRVLLHKSLKLYQVIFEGEIGKGNLGGIAVDDISINNHISQEDCAKPADLDKKNPEIKIDETGSTPGYEGEGEGDKNISRKPGNVLKTLDPRSGSKENLYFQG
notes: a1a2-b1-c with Y297A (held in the entry); Signal peptide not trimmed
B3: in the assay with SEMA3A-FC (R&D systems), the binding result is “no binding”.
